Substitutions are numbered along the chain they refer to. In names and notes the source's numbering stands.
B1: RlArDHT (L-arabinonate dehydratase from Rhizobium leguminosarum bv. trifolii) (Rhizobium leguminosarum bv. trifolii WSM2304) (protein)
chain: MKKKAEWPRKLRSQEWYGGTSRDVIYHRGWLKNQGYPHDLFDGRPVIGILNTWSDMTPCNGHLRELAEKVKAGVWEAGGFPLEVPVFSASENTFRPTAMMYRNLAALAVEEAIRGQPMDGCVLLVGCDKTTPSLLMGAASCDLPSIVVTGGPMLNGYFRGERVGSGTHLWKFSEMVKAGEMTQAEFLEAEASMSRSSGTCNTMGTASTMASMAEALGMALSGNAAIPGVDSRRKVMAQLTGRRIVQMVKDDLKPSEIMTKQAFENAIRTNAAIGGSTNAVIHLLAIAGRVGIDLSLDDWDRCGRDVPTIVNLMPSGKYLMEEFFYAGGLPVVLKRLGEAGLLHKDALTVSGETVWDEVKDVVNWNEDVILPAEKALTSSGGIVVLRGNLAPKGAVLKPSAASPHLLVHKGRAVVFEDIDDYKAKINDDNLDIDENCIMVMKNCGPKGYPGMAEVGNMGLPPKVLKKGILDMVRISDARMSGTAYGTVVLHTSPEAAVGGPLAVVKNGDMIELDVPNRRLHLDISDEELARRLAEWQPNHDLPTSGYAFLHQQHVEGADTGADLDFLKGCRGNAVGKDSH
notes: full length with N-terminal Strep-tag II (WSHPQFEK), codon-optimized, pBAT4, E. coli BL21(DE3); 579 residues without tag; [2Fe-2S] and Mg2+; homotetramer
B2: L-arabinonate dehydratase from Rhizobium leguminosarum bv. trifolii, variant H579L (enzyme, UniProt B5ZZ34 1-579, looked up)
chain: B1 chain with H579L
modifications: KCX129 (6N-carboxylysine)
notes: L-arabinonate dehydratase (RlArDHT) from Rhizobium leguminosarum bv. trifolii, gene araD, GenBank KT260159, codon-optimised synthetic gene; His579 is the last C-terminal residue, changed to Leu; Holds a [2Fe-2S] cluster and Mg2+ in each chain; co-crystallised with 2-oxobutyrate (seen in chain D only); The introduction calls the same variant H588L, which may count the N-terminal tag residues; also …
B3: RlArDHT (L-arabinonate dehydratase from Rhizobium leguminosarum bv. trifolii) (Rhizobium leguminosarum bv. trifolii WSM2304; H579L) (protein)
chain: B1 chain with H579L
notes: as for B1

Key:
[1] = biological target: T1, RlArDHT (L-arabinonate dehydratase from Rhizobium leguminosarum bv. trifolii) (Rhizobium leguminosarum, UniProt B5ZZ34, H579L); experiment: X-ray crystal structure, […] Å, co-crystallized; assay type: binding; conditions: product analog; active site of chain D, coordinated to Mg2+; [2Fe-2S] present; pH 8.5, 20 °C
T1 construct: gene araD; full length with N-terminal Strep-tag II (WSHPQFEK), codon-optimized, pBAT4, E. coli BL21(DE3); 579 residues without tag; [2Fe-2S] and Mg2+; homotetramer

purified protein [2] = substrate: O=C(O)[C@H](O)[C@@H](O)[C@@H](O)[C@H](O)CO; experiment: purified protein; assay type: biochemical, Rhizobium leguminosarum; conditions: pH 8.0, 30 °C, 50 mM Tris-HCl, 10 mM MgCl2
purified protein [3] = substrate: O=C(O)[C@H](O)[C@@H](O)[C@@H](O)CO; experiment: purified protein; assay type: biochemical, Rhizobium leguminosarum; conditions: pH 8.0, 30 °C, 50 mM Tris-HCl, 10 mM MgCl2
purified protein [4] = substrate: C[C@@H](O)[C@H](O)[C@H](O)[C@@H](O)C(=O)O; experiment: purified protein; assay type: biochemical, Rhizobium leguminosarum; conditions: pH 8.0, 30 °C, 50 mM Tris-HCl, 10 mM MgCl2
purified protein [5] = substrate: O=C(O)[C@H](O)[C@@H](O)[C@H](O)CO; experiment: purified protein; assay type: biochemical, Rhizobium leguminosarum; conditions: pH 8.0, 30 °C, 50 mM Tris-HCl, 10 mM MgCl2
purified protein [6] = substrate: O=C(O)[C@H](O)[C@@H](O)[C@H](O)[C@H](O)CO; experiment: purified protein; assay type: biochemical, Rhizobium leguminosarum; conditions: pH 8.0, 30 °C, 50 mM Tris-HCl, 10 mM MgCl2
[7] = biological target: the molecule itself; experiment: crystal structure; H579L co-crystallised with 2-oxobutyrate, hanging-drop vapor diffusion at 20 °C; 14% (w/v) PEG 10000, 200 mM ammonium acetate, 100 mM Tris pH 8.5; molecular replacement with PDB 5J84

T1 sequence (B5ZZ34 whole entry H579L): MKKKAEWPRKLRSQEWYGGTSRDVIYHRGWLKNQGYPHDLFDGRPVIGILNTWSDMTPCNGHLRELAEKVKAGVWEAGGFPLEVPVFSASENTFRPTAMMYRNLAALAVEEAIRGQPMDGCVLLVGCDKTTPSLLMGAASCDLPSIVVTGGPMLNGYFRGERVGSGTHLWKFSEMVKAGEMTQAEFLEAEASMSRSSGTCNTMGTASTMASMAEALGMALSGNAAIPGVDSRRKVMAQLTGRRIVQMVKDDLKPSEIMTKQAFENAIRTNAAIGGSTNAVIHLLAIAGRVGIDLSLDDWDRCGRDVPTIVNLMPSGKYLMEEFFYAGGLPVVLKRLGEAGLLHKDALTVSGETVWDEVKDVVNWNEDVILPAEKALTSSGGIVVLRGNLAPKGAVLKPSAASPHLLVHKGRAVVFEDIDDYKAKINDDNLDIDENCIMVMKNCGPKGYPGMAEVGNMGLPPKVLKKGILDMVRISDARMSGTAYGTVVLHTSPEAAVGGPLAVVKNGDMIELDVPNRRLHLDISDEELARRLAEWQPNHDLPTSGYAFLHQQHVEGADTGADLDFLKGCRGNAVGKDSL

Molecule | X-ray crystal structure, 2.4 Å, co-crystallized [1] | Km (purified protein [2]) | kcat (purified protein [2]) | kcat/Km (purified protein [2]) | Km (purified protein [3]) | kcat (purified protein [3]) | kcat/Km (purified protein [3]) | Km (purified protein [4]) | kcat (purified protein [4]) | kcat/Km (purified protein [4]) | Km (purified protein [5]) | kcat (purified protein [5]) | kcat/Km (purified protein [5]) | Km (purified protein [6]) | kcat (purified protein [6]) | kcat/Km (purified protein [6]) | stoichiometry N [7]
CCC(=O)C(=O)O [2-oxobutyrate] | 2-Oxobutyrate was refined inside the substrate-binding cavity in chain D of the H579L variant |  |  |  |  |  |  |  |  |  |  |  |  |  |  |  | 
B1 |  | 740 ± 150 µM | 11.5 ± 0.5 s⁻¹ | 15500 ± 2330 M⁻¹ s⁻¹ | 1200 ± 200 µM | 11.3 ± 0.5 s⁻¹ | 9500 ± 1170 M⁻¹ s⁻¹ | 240 ± 70 µM | 17.5 ± 1 s⁻¹ | 73300 ± 18300 M⁻¹ s⁻¹ | 1300 ± 300 µM | 0.413 ± 0.0217 s⁻¹ | 317 ± 66.7 M⁻¹ s⁻¹ | 5700 ± 1500 µM | 6.5 ± 0.833 s⁻¹ | 1130 ± 150 M⁻¹ s⁻¹ | 
B2 |  |  |  |  |  |  |  |  |  |  |  |  |  |  |  |  | 4
B3 |  | 900 ± 150 µM | 1.48 ± 0.0667 s⁻¹ | 1580 ± 183 M⁻¹ s⁻¹ | 1000 ± 200 µM | 2 ± 0.0833 s⁻¹ | 2000 ± 333 M⁻¹ s⁻¹ | 820 ± 60 µM | 21.5 ± 0.5 s⁻¹ | 26200 ± 1330 M⁻¹ s⁻¹ | 1200 ± 200 µM | 0.107 ± 0.00333 s⁻¹ | 88.3 ± 11.7 M⁻¹ s⁻¹ | 5400 ± 900 µM | 0.667 ± 0.05 s⁻¹ | 125 ± 11.7 M⁻¹ s⁻¹ | 

From paper PMC11316719, “Unveiling the importance of the C-terminus in the sugar acid dehydratase of the IlvD/EDD superfamily” (Applied Microbiology and Biotechnology, 2024)
